Source: the supplement of paper PMC10126150
± gives the standard deviation of the averaged measurements.

tested on: ATP; assay: switch fluorescence ratio, 500 uM ATP over buffer (Cy3 cluster intensity, sum of 5 cycles each) (fold (ratio)); higher = stronger signal-on switching upon ATP binding; sequences stand for … in TCGTCGGCAGCGTCAGATGTGTATAAGAGACAGTTTTTTTTTTTTTTTTTTTTTTTTT…TC; details: aptamer strand: ATP DNA aptamer (quencher-CACCTGGGGGAGTATTGCGGAGGAAGG + anchor), 100 nM annealed; ATP concentration: 500 uM
Method in brief: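 Cy3-labelled switching-strand clusters on a modified Illumina MiSeq flow-cell were annealed to 100 nM quencher-labelled ATP aptamer and imaged first in selection buffer, then after 15 min with 500 uM ATP at 22 °C. NaOH stripping and re-annealing separated each of five buffer/ATP cycles, and clusters outside 100-1000 RFU were excluded. The fluorescence ratio sums target-cycle Cy3 intensity over buffer-cycle Cy3 intensity per cluster and averages it per switch-domain sequence.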
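Further: ATP exposure 15 min at 22 °C before imaging.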

Row | Sequence | switch fluorescence ratio
1 | AGAGGGCATG | 0.987 ± 0.026
2 | AGAGGGCTTT | 0.988 ± 0.032
3 | AGAGGGGAGT | 1.021 ± 0.0016
4 | AGAGGGGATG | 1.02 ± 0.0081
5 | AGAGGGGCCA | 1.01 ± 0.048
6 | AGAGGGGTTT | 0.98 ± 0.03
7 | AGAGGTAAGA | 0.9911 ± 0.0084
8 | AGAGGTACAC | 1 ± 0.021
9 | AGAGGTTACG | 0.994 ± 0.046
10 | AGAGGTTAGG | 0.9874 ± 0.0033
11 | AGAGGTTGGG | 0.98 ± 0.04
12 | AGAGGTTTTT | 0.989 ± 0.019
13 | AGAGTACTCG | 1.05 ± 0.0048
14 | AGAGTACTGG | 1.01 ± 0.01
15 | AGAGTATTGC | 1.04 ± 0.16
16 | AGAGTCAGGC | 1.07 ± 0.044
17 | AGAGTCATGG | 1 ± 0.013
18 | AGAGTCTATC | 0.972 ± 0.044
19 | AGAGTGACGA | 1.008 ± 0.0061
20 | AGAGTGCTAC | 1.04 ± 0.027
21 | AGAGTGGTAG | 0.99 ± 0.013
22 | AGAGTGGTCA | 0.988 ± 0.018
23 | AGAGTTGTGA | 1.02 ± 0.012
24 | AGAGTTTTTT | 0.998 ± 0.018
25 | AGATAAACTC | 1.03 ± 0.051

Row | Sequence | switch fluorescence ratio
26 | AGATATGTTG | 0.996 ± 0.012
27 | AGATCAGGAT | 1.02 ± 0.012
28 | AGATCCATTT | 0.991 ± 0.055
29 | AGATCGCTTT | 1.02 ± 0.029
30 | AGATCGTGAG | 0.97 ± 0.038
31 | AGATCGTTTT | 0.999 ± 0.012
32 | AGATCTATTG | 1.03 ± 0.033
33 | AGATCTGCAT | 1.11 ± 0.019
34 | AGATGACGGG | 0.975 ± 0.033
35 | AGATGAGGGT | 1 ± 0.02
36 | AGATGATGGG | 0.99 ± 0.017
37 | AGATGCCTGA | 0.989 ± 0.035
38 | AGATGGATTA | 1.025 ± 0.0024
39 | AGATGGCATT | 1 ± 0.048
40 | AGATGGGTAT | 0.986 ± 0.011
41 | AGATGTACTA | 1.04 ± 0.043
42 | AGATGTGTCT | 1.02 ± 0.003
43 | AGATGTTCGG | 0.975 ± 0.025
44 | AGATTAGGAC | 0.97145 ± 0.00024
45 | AGATTATAGC | 1.02 ± 0.045
46 | AGATTATGCA | 1.01 ± 0.048
47 | AGATTCATCA | 0.9931 ± 0.0055
48 | AGATTCATGT | 0.988 ± 0.018
49 | AGATTCCGGT | 0.976 ± 0.016
50 | AGATTCTGTT | 0.945 ± 0.022

Row | Sequence | switch fluorescence ratio
51 | AGATTGTACG | 1.006 ± 0.0017
52 | AGATTGTATG | 1.01 ± 0.039
53 | AGATTGTCTC | 0.9573 ± 0.0063
54 | AGATTGTGGT | 0.99 ± 0.018
55 | AGATTTATTT | 1.004 ± 0.0097
56 | AGATTTGGCA | 0.988 ± 0.03
57 | AGATTTGTGT | 0.959 ± 0.024
58 | AGATTTGTTG | 0.978 ± 0.034
59 | AGATTTTCCT | 1.19 ± 0.35
60 | AGATTTTGGT | 0.9954 ± 0.0026
61 | AGATTTTGTC | 0.972 ± 0.011
62 | AGATTTTGTT | 0.975 ± 0.017
63 | AGCAAAACGT | 1.17 ± 0.19
64 | AGCAAACGGG | 1.26 ± 0.015
65 | AGCAAAGTA | 0.9748 ± 0.0062
66 | AGCAAATATA | 1.058 ± 0.0057
67 | AGCAACGTTC | 1.07 ± 0.081
68 | AGCAAGGGGC | 1.02 ± 0.023
69 | AGCAAGTCAG | 1.07 ± 0.013
70 | AGCAATCGTT | 1.54 ± 0.071
71 | AGCAATTGGT | 1.062 ± 0.0086
72 | AGCACAAAAA | 1.12 ± 0.096
73 | AGCACGGGTT | 1.21 ± 0.3
74 | AGCAGAAATT | 1.02 ± 0.054
75 | AGCAGCGGGC | 0.997 ± 0.043

Row | Sequence | switch fluorescence ratio
76 | AGCAGGGACT | 1.051 ± 0.0077
77 | AGCAGGGCGG | 0.983 ± 0.011
78 | AGCAGGGCTT | 1.04 ± 0.05
79 | AGCAGGTGGG | 1.05 ± 0.076
80 | AGCAGTTTAC | 1.17 ± 0.054
81 | AGCATAAGC | 1.04 ± 0.012
82 | AGCATGTCGT | 1.01 ± 0.015
83 | AGCATTGGCT | 1.016 ± 0.0011
84 | AGCCACATGG | 0.98 ± 0.031
85 | AGCCACGCGT | 1.01 ± 0.012
86 | AGCCAGCTGC | 0.9924 ± 0.0095
87 | AGCCAGGATG | 1.104 ± 0.0047
88 | AGCCCGGAAA | 1.023 ± 0.0038
89 | AGCCGTTTCG | 0.999 ± 0.017
90 | AGCCTAAGAT | 0.963 ± 0.012
91 | AGCCTACGGG | 1.0466 ± 0.00084
92 | AGCCTATTGT | 0.972 ± 0.035
93 | AGCCTGCCCG | 1.05 ± 0.037
94 | AGCCTTTCGT | 1.01 ± 0.054
95 | AGCGAATATT | 1.08 ± 0.098
96 | AGCGAGAGAC | 1.102 ± 0.0025
97 | AGCGAGCGAA | 1.01 ± 0.014
98 | AGCGAGGGAG | 1.005 ± 0.0059
99 | AGCGAGGTCG | 1 ± 0.031
100 | AGCGCAAAAT | 1.02 ± 0.069

Row | Sequence | switch fluorescence ratio
101 | AGCGCAGTTT | 0.999 ± 0.021
102 | AGCGCATTGT | 1.02 ± 0.031
103 | AGCGCGATTC | 1.99 ± 0.13
104 | AGCGCTGGGA | 1 ± 0.05
105 | AGCGGAAGGC | 1.04 ± 0.024
106 | AGCGGAGGGG | 1.04 ± 0.033
107 | AGCGGGGCGC | 1.01 ± 0.069
108 | AGCGGGGGTG | 1.02 ± 0.018
109 | AGCGGGTAGG | 1.02 ± 0.013
110 | AGCGGGTTG | 1.02 ± 0.017
111 | AGCGGTCCTC | 1.09 ± 0.039
112 | AGCGGTGGGA | 1.02 ± 0.032
113 | AGCGGTTTCC | 1.029 ± 0.0093
114 | AGCGTCTCCG | 1.024 ± 0.006
115 | AGCGTCTGTG | 0.962 ± 0.036
116 | AGCGTTAGAG | 1.09 ± 0.017
117 | AGCGTTCTTA | 1.02 ± 0.041
118 | AGCTACCTTC | 1.42 ± 0.041
119 | AGCTAGAGTC | 1.03 ± 0.028
120 | AGCTAGCCTT | 1.02 ± 0.028
121 | AGCTAGGGGG | 0.989 ± 0.022
122 | AGCTATAGTA | 0.991 ± 0.01
123 | AGCTATGGGA | 1.04 ± 0.015
124 | AGCTATGTTA | 1.03 ± 0.0045
125 | AGCTATTCCG | 1.01 ± 0.013

Row | Sequence | switch fluorescence ratio
126 | AGCTCCGACA | 1.63 ± 0.058
127 | AGCTCGCGTC | 0.981 ± 0.021
128 | AGCTCGGCGC | 1.02 ± 0.064
129 | AGCTGAACGG | 1.05 ± 0.025
130 | AGCTGAGTAG | 0.997 ± 0.035
131 | AGCTGAGTCT | 1.02 ± 0.034
132 | AGCTGATAGG | 0.991 ± 0.032
133 | AGCTGATGG | 1.0343 ± 0.00071
134 | AGCTGCTTGC | 1.04 ± 0.066
135 | AGCTGGTGGA | 1.02 ± 0.024
136 | AGCTTATTGC | 0.977 ± 0.015
137 | AGCTTGGGTT | 0.98 ± 0.018
138 | AGCTTGTGAA | 1.01 ± 0.011
139 | AGCTTTAAAA | 0.981 ± 0.025
140 | AGCTTTGGGA | 0.995 ± 0.085
141 | AGCTTTTTTA | 1.02 ± 0.015
142 | AGGAAAACAG | 1.026 ± 0.0032
143 | AGGAAAGTAG | 0.9719 ± 0.0097
144 | AGGAAGACAA | 1.03 ± 0.028
145 | AGGAAGCGGG | 1.0224 ± 0.00031
146 | AGGAAGTCTT | 0.941 ± 0.021
147 | AGGAAGTTGC | 0.9883 ± 0.0085
148 | AGGAATAAGC | 1.01 ± 0.012
149 | AGGAATCGGG | 0.993 ± 0.047
150 | AGGACAAATC | 0.985 ± 0.026

Row | Sequence | switch fluorescence ratio
151 | AGGACCAGCA | 1.024 ± 0.0075
152 | AGGACGATGG | 1.1 ± 0.16
153 | AGGACTCGGG | 1.04 ± 0.068
154 | AGGAGAATCT | 1 ± 0.025
155 | AGGAGAGCTT | 1.02 ± 0.012
156 | AGGAGAGGGA | 0.995 ± 0.038
157 | AGGAGATAAA | 0.983 ± 0.015
158 | AGGAGCAGCG | 0.919 ± 0.03
159 | AGGAGCAGGG | 1 ± 0.05
160 | AGGAGCGCGG | 1.027 ± 0.003
161 | AGGAGCGGCA | 1.018 ± 0.0095
162 | AGGAGCTGAA | 0.987 ± 0.021
163 | AGGAGCTTTC | 1.08 ± 0.039
164 | AGGAGGAGTA | 0.968 ± 0.019
165 | AGGAGGATGT | 0.98 ± 0.01
166 | AGGAGGCATT | 1.02 ± 0.02
167 | AGGAGGGAAC | 0.9916 ± 0.0016
168 | AGGAGGGATA | 1.04 ± 0.015
169 | AGGAGGGCTG | 0.984 ± 0.011
170 | AGGAGGGGAT | 1.02 ± 0.045
171 | AGGAGGGGG | 0.989 ± 0.049
172 | AGGAGGGGTC | 1.01 ± 0.048
173 | AGGAGGGTTT | 0.999 ± 0.032
174 | AGGAGGTTGG | 0.998 ± 0.017
175 | AGGAGTAATC | 1.04 ± 0.072

Row | Sequence | switch fluorescence ratio
176 | AGGAGTAATT | 1.01 ± 0.024
177 | AGGAGTATGG | 1.02 ± 0.015
178 | AGGAGTCGTT | 1.02 ± 0.044
179 | AGGAGTGGCG | 0.97841 ± 0.00086
180 | AGGAGTTTTT | 0.98 ± 0.03
181 | AGGATAAAGG | 1.03 ± 0.036
182 | AGGATACTTT | 0.9793 ± 0.0038
183 | AGGATATATT | 0.976 ± 0.0099
184 | AGGATCGGCG | 0.9769 ± 0.0046
185 | AGGATGGTAT | 1.003 ± 0.01
186 | AGGATTAGCT | 0.999 ± 0.042
187 | AGGATTGGGG | 1 ± 0.043
188 | AGGCAAGGGG | 1.04 ± 0.069
189 | AGGCAATGTC | 1.48 ± 0.17
190 | AGGCAATGTT | 1.05 ± 0.013
191 | AGGCACGCTG | 1.02 ± 0.014
192 | AGGCACGTCG | 1.021 ± 0.009
193 | AGGCAGAACG | 1.048 ± 0.0058
194 | AGGCAGGCGG | 1.01 ± 0.073
195 | AGGCAGTGTC | 1.04 ± 0.05
196 | AGGCAGTTTC | 0.988 ± 0.049
197 | AGGCATATGG | 0.993 ± 0.057
198 | AGGCATGATG | 1.0051 ± 0.00033
199 | AGGCCCTAGG | 1.046 ± 0.0036
200 | AGGCCGAGGA | 0.991 ± 0.018
